From US20050112698A1 (Bayer, published 2005)

Tests used:
human Stem Cell Factor [1] = target: T1, human Stem Cell Factor (human, UniProt P21583 26-189); test: BIAcore, Fab on immobilized SCF
T1 construct: Human SCF was bought from R&D Systems and is called soluble in the BIAcore assay; also called SCF; hSCF

human Stem Cell Factor [2] = target: T1, human Stem Cell Factor; test: cell-based or functional assay
human Stem Cell Factor [3] = target: T1, human Stem Cell Factor; test: cell-based or functional assay; remark: listed apart in the source
rat Stem Cell Factor = target: T2, rat Stem Cell Factor (rat, UniProt P21581 26-189, limits assumed); test: cell-based or functional assay
T2 sequence (looked up): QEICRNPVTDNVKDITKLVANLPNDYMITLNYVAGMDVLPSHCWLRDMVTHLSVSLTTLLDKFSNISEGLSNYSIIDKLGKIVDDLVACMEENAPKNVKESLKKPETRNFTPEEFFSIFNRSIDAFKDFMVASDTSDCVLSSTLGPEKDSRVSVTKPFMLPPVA

Cynomolgus Monkey SCF [4] = target: T3, Cynomolgus Monkey SCF (cynomolgus monkey, UniProt A0A7N9CAX5 26-189); test: cell-based or functional assay
Cynomolgus Monkey SCF [5] = target: T3, Cynomolgus Monkey SCF; test: SPR BIAcore 2000, Fab over 185 RU immobilized cSCF
Experimental: (§1) Affinity measurements were carried out on a BIAcore 2000 (Biacore) at 25° C. […] Purified Fab's were diluted in HBS-EP running buffer at concentrations ranging from 1.95 to 125 nM. A volume of 100 μl was injected using a flow rate of 50 μl/min in Kinject mode. After a 10 min dissociation, 50 μl of 10 mM Glycine, pH 2.5 and 25 μl of 10 mM Glycine, pH 2.0 was injected using a flow rate of 100 μl/min. All samples were run in duplicate. […] Cynomologus monkey SCF was diluted in HBS-EP running buffer at concentrations ranging from 15.6 to 500 nM and 150 μl injected at a flow rate of 50 μl/min. After a 15 min dissociation, 50 μl of 10 mM Glycine, pH 2.5, and 25 μl of 10 mM Glycine, pH 1.5 was injected using a flow rate of 100 μl/min. All samples were run in duplicate. The data was globally fit to the 1 to 1 binding model using BIAevaluation software. The raw experimental data were corrected for instrumental and bulk solvent artifacts by double referencing using both activated and blocked surfaces as controls.
(§2) To evaluate the binding properties of anti-SCF Fabs selected from affinity optimization of the CDR3 loop with SCF, the real time interaction was measured using surface plasmon resonance with the BIAcore 2000. […] The improvement in Kd's are primarily governed by a substantial reduction in the off-rate (koff). […] The affinity constants for Fab binding to human SCF were slightly lower than those Kd's for cynomologus monkey SCF. The panning design, with lower antigen concentrations and extensive washing steps, favors off-rate selection. The affinity of the A2-G8 clone in an IgG vector was measured using the IgG immobilized to the surface of the CM5 chip.

Cynomolgus Monkey SCF [6] = target: T3, Cynomolgus Monkey SCF; test: SPR BIAcore, 5000 RU immobilized cSCF, off-rate ranking; high density chip (5000 RU cSCF), off-rate ranking
Experimental: (§3) TABLE 12 Sequences of the CDR3 Vk1 Region of Selected Antibody Clones with Comparison of koff and SCF Inhibitory Activity The off-rates were determined using a high density surface CM5 chip (5000 RU of immobilized cSCF) on BIAcore and are shown with comparison to the original A2-G8 clone. […] The IC₅₀ in the TF-1 proliferation assay was based on an average of two assays with the exception of the A2-G8-IgG (n = 5).
(§4) Analysis of Fab binding to cSCF was performed by surface plasmon resonance using a BIAcore 2000 (Biacore, Piscataway, N.J.), according to the manufacturer's instructions and a CM5 chip (Biacore) coated with cSCF. For amine coupling, a research grade CM5 chip was activated using the standard NHS/EDC procedure. Cynomologus monkey SCF was diluted to 20 μg/ml in 10 mM NaAcetate, pH 5.0, and a total of 5000 RU's were coupled to channel 2 of the sensor surface. The remaining active sites were quenched by the addition of 1M ethanolamine, pH 8.0. Channel 1 was subjected to the coupling procedure in the absence of protein and was used as a reference surface. Extracts were diluted 1/5 in HBS-EP running buffer and injected for 2 min using a flow rate of 20 μl/min. The surface was regenerated by two consecutive injections of 25 μl, 10 mM glycine, pH 2.5, using a flow rate of 100 μl/min. The koff was calculated from a single concentration of Fab using BIAevaluation software (Biacore).

human Stem Cell Factor [7] = target: T1, human Stem Cell Factor; test: cell-based or functional assay; remark: listed apart in the source
Cynomolgus Monkey SCF [8] = target: T3, Cynomolgus Monkey SCF; test: cell-based or functional assay; remark: listed apart in the source
human Stem Cell Factor [9] = target: T1, human Stem Cell Factor; test: cell-based or functional assay; remark: listed apart in the source
Cynomolgus Monkey SCF [10] = target: T3, Cynomolgus Monkey SCF; test: SPR BIAcore, initial screening (high RU of immobilized antigen, low flow rate)
Experimental: as §4, with “Extracts were diluted 1/5 in HBS-EP running buffer and injected for 2 min using a flow rate of 20 μl/min. The surface was regenerated by two consecutive injections of 25 μl, 10 mM glycine, pH 2.5, using a flow rate of 100 μl/min.” left out
The koffrates determined using kinetic conditions (low RU's of immobilized antigen and high flow rates) on the BIAcore gave higher values than those koff's determined under non-kinetic conditions used during the initial screening procedure (high RU's of immobilized antigen and low flow rates). This is especially apparent for the A2-G8 Fab, where a koff of 6×10⁻³ sec⁻¹ was measured during the initial screening process, compared to a koff value of 1×10⁻² sec⁻¹ measured using kinetic parameters. […] The koff rates determined in the initial screening process, therefore, should not be considered absolute values but a ranking with other Fabs.

Cynomolgus Monkey SCF [11] = target: T3, Cynomolgus Monkey SCF; test: competition ELISA: cSCF binding to coated human SCFR, Fab 3.1 µg/ml
Experimental: The extracts containing Fab were also tested for the ability to inhibit SCF binding to the SCF receptor. ELISA plates were coated overnight with 2 μg/ml human SCFR (R&D Systems, Minneapolis, Minn.) in PBS at 4° C. After washing with TBS-T, the plate was blocked with 5 mg/ml BSA in PBS. The extract was diluted 1/5 in PBS buffer containing 12.5 ng/ml cSCF and 1 mg/ml BSA. After a 1 hr incubation at room temperature, 100 μl was added to the blocked ELISA plate and incubated an additional hour. The plate was washed 5 times with TBS-T, and 100 μl of a 0.4 μg/ml solution of anti-SCF (R&D Systems) in 1 mg/ml BSA in PBS was added. After 1 hour the plate was washed and incubated with anti-Mouse-HRP (Sigma, St. Louis, Mo.). The plate was developed with BM Blue POD substrate (Roche Diagnostics, Chicago, Ill.) and read at 370 nm.
as §3

human Stem Cell Factor [12] = target: T1, human Stem Cell Factor; test: BIAcore, Affinity Estimation, Fab
human Stem Cell Factor [13] = target: T1, human Stem Cell Factor; test: cell-based or functional assay; remark: listed apart in the source
Cynomolgus Monkey SCF [14] = target: T3, Cynomolgus Monkey SCF; test: SPR BIAcore 2000, cSCF over 550 RU immobilized IgG
Experimental: as §1, §2

Cynomolgus Monkey SCF [15] = target: T3, Cynomolgus Monkey SCF; test: SPR BIAcore, off-rate (legend: 5000 RU immobilized cSCF); Table 12 off-rate list (legend: immobilized cSCF)

T1 sequence (P21583 other isoform, or with tags, fused parts or gaps limits assumed): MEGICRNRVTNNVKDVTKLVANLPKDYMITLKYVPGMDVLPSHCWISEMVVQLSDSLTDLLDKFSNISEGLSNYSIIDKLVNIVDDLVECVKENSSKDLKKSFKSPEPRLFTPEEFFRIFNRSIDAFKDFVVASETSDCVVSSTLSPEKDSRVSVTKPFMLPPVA

B1: Fab A2 (Fab, V domains shown)
VH: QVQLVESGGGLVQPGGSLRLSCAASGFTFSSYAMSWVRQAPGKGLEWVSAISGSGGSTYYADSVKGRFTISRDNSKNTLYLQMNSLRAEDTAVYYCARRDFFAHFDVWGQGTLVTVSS
VL: DIQMTQSPSSLSASVGDRVTITCRASQGISSYLAWYQQKPGKAPKLLIYAASSLQSGVPSRFSGSGSGTDFTLTISSLQPEDFATYYCQQYSGMPYTFGQGTKVEIK
notes: HuCAL Fab and parent of the A2-xx clones; It carries FLAG and Strep tags
Human Stem Cell Factor [1]
  Kd: 65.7 nM
Human Stem Cell Factor [2]
  Efficacy IC50 (TF-1 proliferation assay, Fab): 29 µg/mL
Human Stem Cell Factor [3]
  percent inhibition of SCF-induced TF-1 proliferation at 200 ug/ml Fab: > 100%
Rat Stem Cell Factor
  IC50, inhibition of rat SCF in TF-1 proliferation: 20 to 60 µg/mL
  percent inhibition of SCF-induced TF-1 proliferation at 200 ug/ml Fab: > 100%
Cynomolgus Monkey SCF [4]
  IC50, inhibition of cyno SCF in TF-1 proliferation: 20 to 60 µg/mL
  percent inhibition of SCF-induced TF-1 proliferation at 200 ug/ml Fab: > 100%

B2: Fab A2-G8 (Fab, V domains shown)
VH: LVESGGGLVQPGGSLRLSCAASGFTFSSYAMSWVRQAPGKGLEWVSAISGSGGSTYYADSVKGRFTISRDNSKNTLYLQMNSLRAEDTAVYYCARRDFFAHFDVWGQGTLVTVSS
VL: QMTQSPSSLSASVGDRVTITCRASQGIRGYLGWYQQKPGKAPKLLIYSASSLQSGVPSRFSGSGSGTDFTLTISSLQPEDFATYYCQQYSGMPYTFGQGTKVEIKR
notes: Fab format; also called anti-SCF Fab A2-G8; parent Fab A2-G8
Cynomolgus Monkey SCF [5]
  Kd: 25.1 nM
  koff: 0.0106 s⁻¹
  kon: 420000 M⁻¹ s⁻¹
Cynomolgus Monkey SCF [6]
  koff: 0.00306 s⁻¹
Human Stem Cell Factor [7]
  IC50 TF-1 huSCF Assay: 2.36 µg/mL
Cynomolgus Monkey SCF [8]
  IC50 TF-1 cynoSCF Assay: 5.7 µg/mL
Human Stem Cell Factor [9]
  TF-1 Fab assay IC50: 5 µg/mL
Cynomolgus Monkey SCF [10]
  koff: 0.006 s⁻¹
Cynomolgus Monkey SCF [11]
  % Inhibition SCF Binding ELISA Assay: 30%
Human Stem Cell Factor [12]
  Kd: 9 nM

B3: A2-G8 IgG (antibody, V domains shown)
VH: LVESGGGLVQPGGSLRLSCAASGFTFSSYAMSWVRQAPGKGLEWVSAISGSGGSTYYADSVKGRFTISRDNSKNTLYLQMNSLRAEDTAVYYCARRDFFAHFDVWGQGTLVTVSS
VL: B2 VL
notes: Human IgG1 kappa expressed in HKB11 cells; also called A2-G8 Mab; SCF antibody A2-G8
Human Stem Cell Factor [13]
  IC50, Cyno Eos (SCF-stimulated cyno eosinophil survival): 3 µg/mL
  IC50, Human Eos (SCF-stimulated human eosinophil survival): 1.5 µg/mL
  IC50, TF-1 (SCF-induced TF-1 proliferation): 1 µg/mL
Cynomolgus Monkey SCF [14]
  Kd: 35.8 nM
  koff: 0.0013 s⁻¹
  kon: 36300 M⁻¹ s⁻¹
Human Stem Cell Factor [7]
  IC50 TF-1 huSCF Assay: 2.32 µg/mL
Cynomolgus Monkey SCF [8]
  IC50 TF-1 cynoSCF Assay: 11.2 µg/mL
Human Stem Cell Factor [9]
  Eosinophil IgG assay IC50 (human eosinophil survival): 1.5 µg/mL
  TF-1 IgG assay IC50: 1 µg/mL
Cynomolgus Monkey SCF [15]
  koff: 0.0013 s⁻¹

B4: Fab A8 (first screen, Vλ1) (Fab, V domains shown)
VH: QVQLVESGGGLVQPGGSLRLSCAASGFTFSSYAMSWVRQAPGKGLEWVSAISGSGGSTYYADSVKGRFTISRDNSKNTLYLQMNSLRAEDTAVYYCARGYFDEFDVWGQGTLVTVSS
VL: DIVLTQPPSVSGAPGQRVTISCSGSSSNIGSNYVSWYQQLPGTAPKLLIYDNNQRPSGVPDRFSGSKSGTSASLAITGLQSEDEADYYCQSRDHYVVRWVFGGGTKLTVL
notes: It carries FLAG and Strep tags
Human Stem Cell Factor [1]
  Kd: 9.7 nM
Human Stem Cell Factor [2]
  Efficacy IC50 (TF-1 proliferation assay, Fab): 30 µg/mL
Human Stem Cell Factor [3]
  percent inhibition of SCF-induced TF-1 proliferation at 200 ug/ml Fab: > 100%
Cynomolgus Monkey SCF [4]
  percent inhibition of SCF-induced TF-1 proliferation at 200 ug/ml Fab: > 100%
